17 sequences from the DeepSol protein solubility set can be followed below.

This series is described as follows: soluble on expression in E. coli; label from the status in PepcDB or PDB records.
On to “MQTVGSFSEFLDDMVGRYGPRPAIQYRPRYRTLRWSYLELGTHAAKLASLLDEHGVGSGDRVFLSAENSPHWVAAFFAIAARGAVIVPLNPRSPPEQLANLVRSAGPSLVLASPRRRWEGPPLPVVDIERSGRVPSNRPATRTGPARLAEIIYTSGTTGDPKGVMLTHANLLSDLSAVARAIPLAPDDHVLSLVPLFHVYGQMTSLFCPLAAGCPVSYLTTPTTRSVLEALTHTPVTHLVAVPEVLKTMMDRLESRIGRIPGFLWPLLRGRIRARISGSLRTIVCGGAPLDPVVEEKWWALGFQVLQGYGLTETSPVIAANTPQAHRIGSVGKPLDEVELRIASDGEILVKGPMVMAGYFRDPARTEAAFADGWLKTGDAGRLDADGFLYVYGRKRYMILGPGGENVFPEDIEAVLNRTAGVTDCAVVGLESGGRTLVHAVLLADADEARAAAIVAEANRHLAPHQRIVSWSLWPEPDFPRSVTRKVKKDEVLGRLRREPSTQAVPVGRSTPLRLLLAQVAGTEAGALSDDTRLVPDLGLDSLLRIELVARIEEDLGVCLDEIDIGPLTTVADLENLLVRRQDRMPRVDAHPRWSLSPWASRLRPLAQKVFLQWWIAPFCRLRVSGLEHLAALDGPVIFMANHRSYLDSAVASFALPDRFRYRLAIAAATGVLYTRYRWAVPIGELSLNAFPLPSGPDENIRPGLELIGRLLDDGWNVLIFPEGQMNRGGLGIQPLRRGAGTIGVDMGVPVVPLVIEGTEKVMPPGRIVPRAAAPVSVRFGAPLRAGEAEPHGRMLARIEDALRRLLENSPLEHHHHHH”, for which the “soluble on expression in E. coli” value is “not soluble”.

On to “MGSDKIHHHHHHMADTAPQLKRKREQEAEEAETPSTEEKEAGVGNGTSAPVRLPFSGFRVQKVLRESARDKIIFLHGKVNEDSGDTHGEDAVVILEKTPFQVEHVAQLLTGSPELKLQFSNDIYSTYNLFPPRHLSDIKTTVVYPATEKHLQKYMRQDLRLIRETGDDYRTITLPYLESQSLSIQWVYNILDKKAEADRIVFENPDPSDGFVLIPDLKWNQQQLDDLYLIAICHRRGIRSLRDLTPEHLPLLRNILREGQEAILKRYQVTGDRLRVYLHYLPSYYHLHVHFTALGFEAPGSGVERAHLLAQVIENLECDPKHYQQRTLTFALRTDDPLLQLLQKAQQERN”, for which the “soluble on expression in E. coli” value is recorded as “soluble”.

For the sequence “AIATYPTNLEIIGGQGGSSFSFTGENNGASLEKIWVWVGGWQIKAVRAWLSDGRDETFGVPSGSHQEYVFTPGECFTSLSLWGNGAGTRLGAIKFKTNKGGEFFAHMTSWGLKTEYPMDVGSGYCLGIVGRGGSDIDCMGFMFLNAVQSTVLTNVNYPTINQLIPKVATEEIKSVSFENKTSVKQEQKVETSKKVIKTSSWSMTKSFSSTFSVEVSAGIPEIAEVSTGFSISFGVESTHSLEQTDEKNETLTTTVEVPPKKKVDVHITIGRASFDLPYTGTVKITCKNGSVLQYETKGQYKGVAYTDIKVNTVEKDL”, the “soluble on expression in E. coli” value is recorded as “soluble”.

Regarding “TARKCLLEKVEVITGEEAESNVLQMQCKLFVFDKTSQSWVERGRGLLRLNDMASTDDGTLQSRLVMRTQGSLRLILNTKLWAQMQIDKASEKSIHITAMDTEDQGVKVFLISASSKDTGQLYAALHHRILALRSRVE”, the “soluble on expression in E. coli” value was “soluble”.

Turning to “MESLQSIKEIRKYIENNELVLMYFRSDNSGICYALDPLIEAISKKYSKISSVKVNTGNLPSVPADFKIFTVPEVIIFMNGSIVIEHFKYINFREIEEVLLRYYKCI”, the “soluble on expression in E. coli” value was “not soluble”.

As to “MSLSNYWLGLDCGGSWLKAGLYDGAGREVAVQRLPLHALSPQPGWVERDMTELWQQCASVISKLLAHTGVSGSQIRGLGISAQGKGLFLLDKSDRPLGKAILSSDRRAMEIVQRWQKEAVPQKLYPLTRQTLWTGHPVSLLRWVKENEPQRYAQIGCVMMTHDYLRWCLTGVKGCEESNISESNLYNMATGQYDPRLTEWLGISEIDSALSPVVGSAEICGEITAQAAAITGLAAGTPVVGGLFDVVSTALCAGIEDESTLNAVMGTWAVTSGIAHGLRDHEAHPYVYGRYVNDGQYIVHEASPTSSGNLEWFTAQWGDLSFDEINQAVASLPKAGSDLFFLPFLYGSNAGLEMTCGFYGMQALHNRAHLLQALYEGVVFSHMTHLNRMRERFTEVCALRVTGGPAHSDVWMQMLADVSGLRIELPQVEETGCFGAALAARVGTGVYRDFREAQRDLQHPVRTLLPDMTAHALYQRKYRQYQDLIEALQGYHARIKEHALEGHHHHHH”, the “soluble on expression in E. coli” value is recorded as “soluble”.

For “MNNSINHKFHHISRAEYQELLAVSRGDAVADYIIDNVSILDLINGGEISGPIVIKGRYIAGVGAEYTDAPALQRIDAHGATAVPGFIDAHLHIESSMMTPVTFETATLPRGLTTVICDPHEIVNVMGEAGFAWFARCAEQARQNQYLQVSSCVPALEGCDVNGASFTLEQMLAWRDHPQVTGLAEMMDYPGVISGQNALLDKLDAFRHLTLDGHCPGLGGKELNAYIAAGIENCHESYQLEEGRRKLQLGMSLMIREGSAARNLNALAPLINEFNSPQCMLCTDDRNPWEIAHEGHIDALIRRLIEQHNVPLHVAYRVASWSTARHFGLNHLGLLAPGKQADIVLLSDARKVTVQQVLVKGEPIDAQTLQAEESAKLAQSAPPYGNTIARQPVSASDFALQFTPGKRYRVIDVIHNELITHSHSSVYSENGFERNDVCFIAVLERYGQRLAPACGLLGGFGLNEGALAATVSHDSHNIVVIGRSAEEMALAVNQVIQDGGGLCVVRNGQVQSHLPLPIAGLMSTDTAQSLAEQIDALKAAARECGPLPDEPFIQMAFLSLPVIPALKLTSQGLFDGEKFAFTTLEVTE”, the “soluble on expression in E. coli” value is listed as “not soluble”.

Regarding “PLRDVLDSNEFRDSKATLPIALGKDISGKPVIVDLAKMPHLLVAGSTGSGKSVGVNTMILSLLYRVQPEDVKFIMIDPKVVELSVYNDIPHLLTPVVTDMKKAANALRWCVDEMERRYQLLSALRVRNIEGFNEKIDEYEAMGMPVPNPIWRLGDTMDAMPPALKKLSYIVVIVDEFADLMMVAGKQIEELIARLAQKARAIGIHLILATQRPSV”, the “soluble on expression in E. coli” value is “not soluble”.

Regarding “MQLISDRTSGAIHEIFGRDKALIGMIHCPPFPGAPRYRGETMDTIVDACLRDAERLVAGGLHGLVVENHGDIPFSKPDDIGPETAACLGVVTDRIRRAFGVPLGINVLANAPLPALAAAVAGGALFIRVNQWANAYVANEGFMEGRAAEAMRYRSLLRAEHVRIFADSHVKHGSHAIVADRSIPELTRDLAFFDADCIIATGQRTGDSATIAEIEEIGGATHLPLLVGSGVTEANVVEILKRTNGVIVASSLKEGGVWWNPVDPERVARFVAAAREGLDGLEHHHHHH”, the “soluble on expression in E. coli” value is “not soluble”.

For the sequence “MLSKTVFDASQERMEVIFSEFDNIIVSFSGGKDSAVMLHLMIDYIRKNNIQKKIYVYHLDYEGQYSATSDFVAEMLTSNLDIIEPLWCCLPIAAQSAVSMYTDHWIPWEKSKQDIWVREMPDYPSVINEDNAPFDFDFHTIWDYEFNKKLIHWLHTKNKAEKTIALIGIRQQESLNRYNAIHKKERMYKNYNWTTEISKNIYNAYPIHDWLVEDIWTANAKFDWPYNKIYDLFYQAGLTLNDMRVASPFNDSATESLKLYRVIEPALWSKLVGRVNGANFTAIYGGTSAMAWKEINLPPNHTWKSYLEFLLTTLPSYTRERYLKKFKTSINYWTEKGGALKVETVEELKNLNVQADFLGKPQNKRTYSNPMEIVRFKEYPDDLKIKEFASVPTYKRMCIAILKNDYTCKYMGFGQTKLELEKRKHALEKYNNIL”, the “soluble on expression in E. coli” value is on record as “not soluble”.

Regarding “MKIDLPPLRQFLNRLLALTIRMQNVIFERFELLLSQQIETAIANGIFEAGVETLRAERFTIESCESVYTHPDTGSVTNYLKVEQVQRNNIRTAVEMLEFAAKYQGQLMVNQKSSNAAVSIPTHSIFDCDGGVVPRVLLVRPQKETRVPVEQLESSTWQQVSAEEFVTAWSREVDELPRFTTDYLHLVTGILLPIWKILPQKNSRVFRLQTSDGQKILGRVVHASDIQTVTEQLGLKNKLLSPAELEHHHHHH”, the “soluble on expression in E. coli” value is given as “not soluble”.

Regarding “MTITPPTPNGDLHIGHIAGPFLAADVFTRVQRQRGHDCVLVSYSDDYQSYMLRKGLEQGVDPVVLAHRNSDRIEASLAAINIKPDNWMRPHNNPWFAEAVGEVFTALRDAGAIEFRDSSEPYCPDCAVWGYEAFARGQCNYCGAESDASQCENCAQAPDAELMSGLHCKLCQQPSQWKTAHRAFLKLADFKPQLGNRLLGQAWRKPLDSWLRDTLEHLHDWGVTRPGDGGLDLQADGACRVHTWFMGLAGYMAAFREYADSIGRPELFGQYWQSGQGTLVHFLGFDCVFSHAIVYPAQLSVLQGIKVRQRFVPNQFLKLDGLNLSTSRNHAIWVGDLARQACADSARLYLASIAPEDSEGDFRMTHFFEWREELFNGF”, the “soluble on expression in E. coli” value is reported as “not soluble”.

With “MSLQIAGKVVVVTGGGNGIGQALCEAFHKAGAAKVVVADLDQARAEAVAASIGGAAFKCDVANEADIKHVIEETERQFGPIDLFCSNAGIGGGFDPMAENAGGASDEPFMKSWMIHVMAHVYAARHLVPRYRARGGGYFLNTISAAGLLSQVGSPAYSATKHGAVGFAESLAIAHKAHNIRVSILCPQGVDTNMLRSIPKGPQSADGDLTAEQVAKDALQGIEQETFLILPHPQVIDYMRKKTEGHHHHHH”, the “soluble on expression in E. coli” value is “soluble”.

For the sequence “MKIYIEGYGCTLNTADTQIIKNSVNEFEDFELTDNVDDSDIIVINTCIVRQETEHRMISRIEYFKSLDKKVVVAGCMAKALSKKIENLADVLIMPREAQHSGNILKDKLLKDFSEKNNESTQNLNFEDKLNEKIKKVSSQGLITALPICEGCLGSCTYCIVKRARGNLASYDRDLIVKKAEELVKSGTKCLLVTAQDTACYGLDNNDSLPNLINDISEIPEKFAMRIGMMHAKFAEPILDELIESFKSEKVVKFLHLPIQSGDDQVLKDMNRNYTVDEYISVLNEFKSKIKNLNFTTDVIVGFPTETEEAFENTLEIVKKIKPDFTHAAKYSQRKYTKAAILKQVDTKIRKERSEILNELRRELSYENNKRHIGETFEILVTKDNMGVTDNCKNVIFEEPAKIGEFKRVKITGAKTFGLSGKLINLEHHHHHH”, the “soluble on expression in E. coli” value was “soluble”.

Turning to “MGSDKIHHHHHHMKILQIVPSISLIYGGPSQMVLGLAPALVKEGVEVTILTTDSNGDNGQTPLDVPLNRPIKQDGYEIIYFRCAPFRRYKFSLDLLKWLKRHAHEFDLAHIHALFSPIISAAAIVCRQQKLPYIFRPLGTLDPADLRKKKQLKQLYVAIIERQNLASAAAIHFTSEQEAKISERFGVSTPDLVIPLGVIPRQSSLKNVCSQLEIPKDVPLVLFMSRIDPKKGLNLLIPALEKLLAVGYKFHFVLAGTNPQDPDYEQKIISQIQNSPLRSHTTITGFVTGELKVSLLQAADLFVLPSYYENFGIAVAEAMVAGVPVVISDQVHICQQIRDSESGWVGATDVQALVELLQAALQNPAERQRRGLNAQKYALENFSWDAIARQTIQAYQKILANK”, the “soluble on expression in E. coli” value is listed as “not soluble”.

In the case of “MAKKTSSKGKLPPGPRPLPLLGNLLQMDRRGLLKSFLRFREKYGDVFTVHLGPRPVVMLCGVEAIREALVDKAEAFSGRGKIAMVDPFFRGYGVIFANGNRWKVLRRFSVTTMRDFGMGKRSVEERIQEEAQCLIEELRKSKGALMDPTFLFQSITANIICSIVFGKRFHYQDQEFLKMLNLFYQTFSLISSVFGQLFELFSGFLKHFPGAHRQVYKNLQEINAYIGHSVEKHRETLDPSAPRDLIDTYLLHMEKEKSNAHSEFSHQNLNLNTLSLFFAGTETTSTTLRYGFLLMLKYPHVAERVYREIEQVIGPHRPPELHDRAKMPYTEAVIYEIQRFSDLLPMGVPHIVTQHTSFRGYIIPKDTEVFLILSTALHDPHYFEKPDAFNPDHFLDANGALKKTEAFIPFSLGKRICLGEGIARAELFLFFTTILQNFSMASPVAPEDIDLTPQECGVGKIPPTYQIRFLPRHHHH”, the “soluble on expression in E. coli” value was “soluble”.

In the case of “VHVEDALTYLDQVKIRFGSDPATYNGFLEIMKEFKSQSIDTPGVIRRVSQLFHEHPDLIVGFNAFLP”, the “soluble on expression in E. coli” value is recorded as “soluble”.
